# Target: T1, human C5 (human, UniProt P01031 19-673; P01031 678-1676, Beta and alpha chains are disulfide-linked and the protein is glycosylated.)
# T1 construct: Either in-house recombinant C5 or plasma derived C5 (CALBIOCHEM) was used; also called recombinant human C5; plasma derived human C5
# Experiment: Biacore, captured antibody, pH 7.4, 37 C;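 note: biacore binding response of anti-C5 antibody light chain variants captured on chip with human C5 injected, ACES running buffer containing 1.2 mM CaCl₂, parent light chain antibody set to 100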
row,Binder,% binding (parent = 100)
1,"CFP0015 15L 93R (antibody, V domains shown) VH: QVQLLESGGGLVQPGGSLRLSCAASGFTFSSYAMSWVRQAPGKGLEWVSAISGSGGSTYYADSVKGRFTISRDNSKNTLYLQMNSLRAEDTAVYYCARGDQIWYDQWYYFDMWGQGTLVTVSS VL: DIQMTQSPSSLSASVGDRVTITCRASQSIEDDLAWYQQKPGKAPKLLIYEASNLQSGVPSRFSGSGSGTDFTLTISSLQPEDFATYYCQQYDRSPLTFGQGTKVEIK",96%
2,"CFP0011 (antibody, V domains shown, IgG format) VH: QVQLVQSGAEVKKPGSSVKVSCKASGGTFSSYAISWVRQAPGQGLEWMGGIIPIFGTANYAQKFQGRVTITADESTSTAYMELSSLRSEDTAVYYCARDMSEFLGWSNYYSYPMDVWGQGTTVTVSS VL: DIQMTQSPSSLSASVGDRVTITCRASQSIEDDLAWYQQKPGKAPKLLIYHASSLQSGVPSRFSGSGSGTDFTLTISSLQPEDFATYYCQQSDNSPYTFGQGTKVEIK",100%
3,"CFP0015 15L 96W (antibody, V domains shown) VH: QVQLLESGGGLVQPGGSLRLSCAASGFTFSSYAMSWVRQAPGKGLEWVSAISGSGGSTYYADSVKGRFTISRDNSKNTLYLQMNSLRAEDTAVYYCARGDQIWYDQWYYFDMWGQGTLVTVSS VL: DIQMTQSPSSLSASVGDRVTITCRASQSIEDDLAWYQQKPGKAPKLLIYEASNLQSGVPSRFSGSGSGTDFTLTISSLQPEDFATYYCQQYDSSPWTFGQGTKVEIK",3.6%
4,"CFP0015 15L 94F (antibody, V domains shown) VH: QVQLLESGGGLVQPGGSLRLSCAASGFTFSSYAMSWVRQAPGKGLEWVSAISGSGGSTYYADSVKGRFTISRDNSKNTLYLQMNSLRAEDTAVYYCARGDQIWYDQWYYFDMWGQGTLVTVSS VL: DIQMTQSPSSLSASVGDRVTITCRASQSIEDDLAWYQQKPGKAPKLLIYEASNLQSGVPSRFSGSGSGTDFTLTISSLQPEDFATYYCQQYDSFPLTFGQGTKVEIK",10.6%
5,"CFP0015 15L 94T (antibody, V domains shown) VH: QVQLLESGGGLVQPGGSLRLSCAASGFTFSSYAMSWVRQAPGKGLEWVSAISGSGGSTYYADSVKGRFTISRDNSKNTLYLQMNSLRAEDTAVYYCARGDQIWYDQWYYFDMWGQGTLVTVSS VL: DIQMTQSPSSLSASVGDRVTITCRASQSIEDDLAWYQQKPGKAPKLLIYEASNLQSGVPSRFSGSGSGTDFTLTISSLQPEDFATYYCQQYDSTPLTFGQGTKVEIK",53.1%
6,"CFP0011 11L 30D (antibody, V domains shown) VH: QVQLVQSGAEVKKPGSSVKVSCKASGGTFSSYAISWVRQAPGQGLEWMGGIIPIFGTANYAQKFQGRVTITADESTSTAYMELSSLRSEDTAVYYCARDMSEFLGWSNYYSYPMDVWGQGTTVTVSS VL: DIQMTQSPSSLSASVGDRVTITCRASQSIDDDLAWYQQKPGKAPKLLIYHASSLQSGVPSRFSGSGSGTDFTLTISSLQPEDFATYYCQQSDNSPYTFGQGTKVEIK",71.4%
7,"CFP0011 11L 30A (antibody, V domains shown) VH: QVQLVQSGAEVKKPGSSVKVSCKASGGTFSSYAISWVRQAPGQGLEWMGGIIPIFGTANYAQKFQGRVTITADESTSTAYMELSSLRSEDTAVYYCARDMSEFLGWSNYYSYPMDVWGQGTTVTVSS VL: DIQMTQSPSSLSASVGDRVTITCRASQSIADDLAWYQQKPGKAPKLLIYHASSLQSGVPSRFSGSGSGTDFTLTISSLQPEDFATYYCQQSDNSPYTFGQGTKVEIK",100%
8,"CFP0011 11L 30H (antibody, V domains shown) VH: QVQLVQSGAEVKKPGSSVKVSCKASGGTFSSYAISWVRQAPGQGLEWMGGIIPIFGTANYAQKFQGRVTITADESTSTAYMELSSLRSEDTAVYYCARDMSEFLGWSNYYSYPMDVWGQGTTVTVSS VL: DIQMTQSPSSLSASVGDRVTITCRASQSIHDDLAWYQQKPGKAPKLLIYHASSLQSGVPSRFSGSGSGTDFTLTISSLQPEDFATYYCQQSDNSPYTFGQGTKVEIK",13.6%
9,"CFP0015 15L 96P (antibody, V domains shown) VH: QVQLLESGGGLVQPGGSLRLSCAASGFTFSSYAMSWVRQAPGKGLEWVSAISGSGGSTYYADSVKGRFTISRDNSKNTLYLQMNSLRAEDTAVYYCARGDQIWYDQWYYFDMWGQGTLVTVSS VL: DIQMTQSPSSLSASVGDRVTITCRASQSIEDDLAWYQQKPGKAPKLLIYEASNLQSGVPSRFSGSGSGTDFTLTISSLQPEDFATYYCQQYDSSPPTFGQGTKVEIK",49%
10,"CFP0011 11L 31N (antibody, V domains shown) VH: QVQLVQSGAEVKKPGSSVKVSCKASGGTFSSYAISWVRQAPGQGLEWMGGIIPIFGTANYAQKFQGRVTITADESTSTAYMELSSLRSEDTAVYYCARDMSEFLGWSNYYSYPMDVWGQGTTVTVSS VL: DIQMTQSPSSLSASVGDRVTITCRASQSIENDLAWYQQKPGKAPKLLIYHASSLQSGVPSRFSGSGSGTDFTLTISSLQPEDFATYYCQQSDNSPYTFGQGTKVEIK",125%
11,"CFP0011 11L 32Q (antibody, V domains shown) VH: QVQLVQSGAEVKKPGSSVKVSCKASGGTFSSYAISWVRQAPGQGLEWMGGIIPIFGTANYAQKFQGRVTITADESTSTAYMELSSLRSEDTAVYYCARDMSEFLGWSNYYSYPMDVWGQGTTVTVSS VL: DIQMTQSPSSLSASVGDRVTITCRASQSIEDQLAWYQQKPGKAPKLLIYHASSLQSGVPSRFSGSGSGTDFTLTISSLQPEDFATYYCQQSDNSPYTFGQGTKVEIK",18.4%
12,"CFP0015 15L 96H (antibody, V domains shown) VH: QVQLLESGGGLVQPGGSLRLSCAASGFTFSSYAMSWVRQAPGKGLEWVSAISGSGGSTYYADSVKGRFTISRDNSKNTLYLQMNSLRAEDTAVYYCARGDQIWYDQWYYFDMWGQGTLVTVSS VL: DIQMTQSPSSLSASVGDRVTITCRASQSIEDDLAWYQQKPGKAPKLLIYEASNLQSGVPSRFSGSGSGTDFTLTISSLQPEDFATYYCQQYDSSPHTFGQGTKVEIK",50.7%
13,"CFP0011 11L 31A (antibody, V domains shown) VH: QVQLVQSGAEVKKPGSSVKVSCKASGGTFSSYAISWVRQAPGQGLEWMGGIIPIFGTANYAQKFQGRVTITADESTSTAYMELSSLRSEDTAVYYCARDMSEFLGWSNYYSYPMDVWGQGTTVTVSS VL: DIQMTQSPSSLSASVGDRVTITCRASQSIEADLAWYQQKPGKAPKLLIYHASSLQSGVPSRFSGSGSGTDFTLTISSLQPEDFATYYCQQSDNSPYTFGQGTKVEIK",112%
14,"CFP0011 11L 31H (antibody, V domains shown) VH: QVQLVQSGAEVKKPGSSVKVSCKASGGTFSSYAISWVRQAPGQGLEWMGGIIPIFGTANYAQKFQGRVTITADESTSTAYMELSSLRSEDTAVYYCARDMSEFLGWSNYYSYPMDVWGQGTTVTVSS VL: DIQMTQSPSSLSASVGDRVTITCRASQSIEHDLAWYQQKPGKAPKLLIYHASSLQSGVPSRFSGSGSGTDFTLTISSLQPEDFATYYCQQSDNSPYTFGQGTKVEIK",100%
15,"CFP0015 15L 96Y (antibody, V domains shown) VH: QVQLLESGGGLVQPGGSLRLSCAASGFTFSSYAMSWVRQAPGKGLEWVSAISGSGGSTYYADSVKGRFTISRDNSKNTLYLQMNSLRAEDTAVYYCARGDQIWYDQWYYFDMWGQGTLVTVSS VL: DIQMTQSPSSLSASVGDRVTITCRASQSIEDDLAWYQQKPGKAPKLLIYEASNLQSGVPSRFSGSGSGTDFTLTISSLQPEDFATYYCQQYDSSPYTFGQGTKVEIK",7.5%
16,"CFP0011 11L 30S (antibody, V domains shown) VH: QVQLVQSGAEVKKPGSSVKVSCKASGGTFSSYAISWVRQAPGQGLEWMGGIIPIFGTANYAQKFQGRVTITADESTSTAYMELSSLRSEDTAVYYCARDMSEFLGWSNYYSYPMDVWGQGTTVTVSS VL: DIQMTQSPSSLSASVGDRVTITCRASQSISDDLAWYQQKPGKAPKLLIYHASSLQSGVPSRFSGSGSGTDFTLTISSLQPEDFATYYCQQSDNSPYTFGQGTKVEIK",44.5%
17,"CFP0015 15L 96I (antibody, V domains shown) VH: QVQLLESGGGLVQPGGSLRLSCAASGFTFSSYAMSWVRQAPGKGLEWVSAISGSGGSTYYADSVKGRFTISRDNSKNTLYLQMNSLRAEDTAVYYCARGDQIWYDQWYYFDMWGQGTLVTVSS VL: DIQMTQSPSSLSASVGDRVTITCRASQSIEDDLAWYQQKPGKAPKLLIYEASNLQSGVPSRFSGSGSGTDFTLTISSLQPEDFATYYCQQYDSSPITFGQGTKVEIK",103%
18,"CFP0011 11L 32N (antibody, V domains shown) VH: QVQLVQSGAEVKKPGSSVKVSCKASGGTFSSYAISWVRQAPGQGLEWMGGIIPIFGTANYAQKFQGRVTITADESTSTAYMELSSLRSEDTAVYYCARDMSEFLGWSNYYSYPMDVWGQGTTVTVSS VL: DIQMTQSPSSLSASVGDRVTITCRASQSIEDNLAWYQQKPGKAPKLLIYHASSLQSGVPSRFSGSGSGTDFTLTISSLQPEDFATYYCQQSDNSPYTFGQGTKVEIK",3.6%
19,"CFP0015 15L 94Y (antibody, V domains shown) VH: QVQLLESGGGLVQPGGSLRLSCAASGFTFSSYAMSWVRQAPGKGLEWVSAISGSGGSTYYADSVKGRFTISRDNSKNTLYLQMNSLRAEDTAVYYCARGDQIWYDQWYYFDMWGQGTLVTVSS VL: DIQMTQSPSSLSASVGDRVTITCRASQSIEDDLAWYQQKPGKAPKLLIYEASNLQSGVPSRFSGSGSGTDFTLTISSLQPEDFATYYCQQYDSYPLTFGQGTKVEIK",46.1%
20,"CFP0015 15L 96F (antibody, V domains shown) VH: QVQLLESGGGLVQPGGSLRLSCAASGFTFSSYAMSWVRQAPGKGLEWVSAISGSGGSTYYADSVKGRFTISRDNSKNTLYLQMNSLRAEDTAVYYCARGDQIWYDQWYYFDMWGQGTLVTVSS VL: DIQMTQSPSSLSASVGDRVTITCRASQSIEDDLAWYQQKPGKAPKLLIYEASNLQSGVPSRFSGSGSGTDFTLTISSLQPEDFATYYCQQYDSSPFTFGQGTKVEIK",11.8%
21,"CFP0015 15L 94W (antibody, V domains shown) VH: QVQLLESGGGLVQPGGSLRLSCAASGFTFSSYAMSWVRQAPGKGLEWVSAISGSGGSTYYADSVKGRFTISRDNSKNTLYLQMNSLRAEDTAVYYCARGDQIWYDQWYYFDMWGQGTLVTVSS VL: DIQMTQSPSSLSASVGDRVTITCRASQSIEDDLAWYQQKPGKAPKLLIYEASNLQSGVPSRFSGSGSGTDFTLTISSLQPEDFATYYCQQYDSWPLTFGQGTKVEIK",4.5%

# — patent publication US20180016327A1 (Chugai, published 2018)
